Experimental data as given in the RNAGym collection of RNA variant scans (doi:10.7554/elife.80360).

B1: CPEB3 Ribozyme (parent)
chain: GGGGGCCACAGCAGAAGCGUUCACGUCGCGGCCCCUGUCAGAUUCUGGUGAAUCUGCGAAUUCUGCUGU

Variants of: B1
Experiment: self-cleavage, relative activity (ratio to wild type); higher = more cleavage; co-transcriptional

First: CGGUGCCACAGCAGAAGCGUUCACGUCGCGGCCCCUGUCAGAUUCUGGUGAAUCUGCGAAUUCUGCUGU
Second: CGGGGCCACAGCACAAGCGUUCACGUCGCGGCCCCUGUCAGAUUCUGGUGAAUCUGCGAAUUCUGCUGU
The self-cleavage of the first is higher: 0.205 for the first, 0.152 for the second.

Going from CGGGGCCACAGCAGAAGCGUUCACGUCGCUGCCCCUGUCAGAUUCUGGUGAAUCUGCGAAUUCUGCUGU to CGGGGCCACAGCAGAAGCGUUCACGUCGCGGCCCCUGUCAUAUUCUGGUGAAUCUGCGAAUUCUGCUGU, the self-cleavage rises from 0.162 to 0.193.

Going from CGGGGCCACAGCAGAAGCGUUCAGGUCGCGGCCCCUGUCAGAUUCUGGUGAAUCUGCGAAUUCUGCUGU to CGGGGCCACAGCAGAAGCGUUCAUGUCGCGGCCCCUGUCAGAUUCUGGUGAAUCUGCGAAUUCUGCUGU, the self-cleavage rises from 0.118 to 0.203.

Going from AGGGGCCACAGCAGAAGCGUUCACGUCGCGGCCCCUGUCAGAUUCUGGUCAAUCUGCGAAUUCUGCUGU to CGGGGCCACAGCAGAAGCGUUCACGUCGCGGCCCCUGUCAGAUUCUGAUGAAUCUGCGAAUUCUGCUGU, the self-cleavage rises from 0.115 to 0.204.

Compared with CGGGGCCACAGCAGAAGCGUUCACGUCGCGGCCCCUGUCAGAUUCUGCUGAAUCUGCGAAUUCUGCUGU, AGGGGCCACAGCAGAAGCGUUCACGUCGCGGCCCCUGUCAGAUUCUGGUGAAACUGCGAAUUCUGCUGU is lower in self-cleavage: 0.215 for the first, 0.0419 for the second.

Going from AGGGGCCACAGCAGAAGCGUUCACGUCGCGGCCCCUGUCAGAUUCUGGUGAACCUGCGAAUUCUGCUGU to AGGGGCCACAGCAGAAGCGUUCACGUCGCGGCCCCUGUCAGAUUCUGGUGAAGCUGCGAAUUCUGCUGU, the self-cleavage rises from 0.0532 to 0.0671.

First: CGGGGCCACAGCAGAAGGGUUCACGUCGCGGCCCCUGUCAGAUUCUGGUGAAUCUGCGAAUUCUGCUGU
Second: CGGGGCCACAGCAGAAGUGUUCACGUCGCGGCCCCUGUCAGAUUCUGGUGAAUCUGCGAAUUCUGCUGU
The self-cleavage of the first is lower: 0.0551 for the first, 0.167 for the second.

First: CGGGGCCACAGCAGAAGAGUUCACGUCGCGGCCCCUGUCAGAUUCUGGUGAAUCUGCGAAUUCUGCUGU
Second: CGGGGCCAAAGCAGAAGCGUUCACGUCGCGGCCCCUGUCAGAUUCUGGUGAAUCUGCGAAUUCUGCUGU
The self-cleavage of the first is lower: 0.035 for the first, 0.251 for the second.

Compared with AGGGGCCACAGCAGAAGCGUUCACGUCGCGGCCCCUGUCAGAUUCUGGUGAAUCUGCGAAAUCUGCUGU, AGGGGCCACAGCAGAAGCGUUCACGUCGCGGCCCCUGUCAGAUUCUGGUGAAUCUGCGAAGUCUGCUGU is higher in self-cleavage: 0.0967 for the first, 0.15 for the second.

Going from AGGGGCCACAGCAGAAGCGUUCACGUCACGGCCCCUGUCAGAUUCUGGUGAAUCUGCGAAUUCUGCUGU to CGGGGCCACAGCAGAAGCGUUCACGUCGCGGCCCCUGUCAGAUUCUGGUGAAUCUGCGAUUUCUGCUGU, the self-cleavage rises from 0.0534 to 0.179.

Going from CGGGACCACAGCAGAAGCGUUCACGUCGCGGCCCCUGUCAGAUUCUGGUGAAUCUGCGAAUUCUGCUGU to CGGGCCCACAGCAGAAGCGUUCACGUCGCGGCCCCUGUCAGAUUCUGGUGAAUCUGCGAAUUCUGCUGU, the self-cleavage falls from 0.272 to 0.15.

Going from CGGGGCCACAGCAGAAGCGUUCACGUCGCGGCCCCUGUCAGAUUCUGGUAAAUCUGCGAAUUCUGCUGU to CGGGGCCACAGCAGAAGCGUUCACGUCGCGGCCCCUGUCAGAUUCUGGUCAAUCUGCGAAUUCUGCUGU, the self-cleavage falls from 0.224 to 0.145.

First: CGGGGCCACAGCAGAAGCGUUCACGUCGCGGCCCCUGUCAGAUUCUGGUGAAUCUGUGAAUUCUGCUGU
Second: AGGGGCCACAGCAGAAGCGUUCACGUCGCGGCCCCUGGCAGAUUCUGGUGAAUCUGCGAAUUCUGCUGU
The self-cleavage of the first is higher: 0.07 for the first, 0.0274 for the second.

Going from AGGGGCCACAGCAGAAGCGUUCACGUCGCGGCCCCUGACAGAUUCUGGUGAAUCUGCGAAUUCUGCUGU to CGGGGCCACAGCAGAAGCGUUCACGUCGAGGCCCCUGUCAGAUUCUGGUGAAUCUGCGAAUUCUGCUGU, the self-cleavage rises from 0.0918 to 0.168.

Compared with AGGGGCCACAGCAGAACCGUUCACGUCGCGGCCCCUGUCAGAUUCUGGUGAAUCUGCGAAUUCUGCUGU, CGGGGCCACAGCAGAAGCGUUCACGUCGCGGGCCCUGUCAGAUUCUGGUGAAUCUGCGAAUUCUGCUGU is higher in self-cleavage: 0.0672 for the first, 0.148 for the second.

First: AGGGGCCACAGCAGAAGCGUUCACGUCGCGGCCCCUGUCAGAUUCUGGCGAAUCUGCGAAUUCUGCUGU
Second: CGGGGCCACAGCAGAAGCGUUCACGUCGCGGCCCCUGUCAGUUUCUGGUGAAUCUGCGAAUUCUGCUGU
The self-cleavage of the first is lower: 0.0571 for the first, 0.2 for the second.

First: AGGGGCCACAGCAGAAGCGUUCACGUCGCGGCCCCUGUCAGAUUCUGGUGAAUCUGCGAAUGCUGCUGU
Second: AGGGGCCACAGCAGAAGCGUUCACGUCGCGGCCCCUGUCAGAUUCUGGUGAAUCUGCGAAUCCUGCUGU
The self-cleavage of the first is higher: 0.0371 for the first, 0.033 for the second.

Compared with CGGGGCCACAGCAGAAGCGUUCACGUCGCGGCCCCUGUCUGAUUCUGGUGAAUCUGCGAAUUCUGCUGU, CGGGGCCACUGCAGAAGCGUUCACGUCGCGGCCCCUGUCAGAUUCUGGUGAAUCUGCGAAUUCUGCUGU is higher in self-cleavage: 0.195 for the first, 0.209 for the second.

Going from CGGGGCCACCGCAGAAGCGUUCACGUCGCGGCCCCUGUCAGAUUCUGGUGAAUCUGCGAAUUCUGCUGU to AGGGGCCACAGCAGAAGCGUCCACGUCGCGGCCCCUGUCAGAUUCUGGUGAAUCUGCGAAUUCUGCUGU, the self-cleavage falls from 0.23 to 0.0967.

For AGGGGCCACAGCAGAAGCGUUCACGUCGCGGCCCCUGUCAGAUGCUGGUGAAUCUGCGAAUUCUGCUGU, the self-cleavage was 0.0722.
